Results reported in US6465220.

Key:
PSGL-1b peptide = target: T1, PSGL-1b peptide
T1 chain: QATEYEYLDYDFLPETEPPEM

PSGL-1a peptide = target: T2, PSGL-1a peptide
T2 chain: QATEYEYLDYDFLPEC

B1: soluble recombinant human GalNAc-T3 (pAcGP67-GalNAc-T3-sol) (protein)
chain: MERNMKNKNKMLDLMLEAVNNIKDAMPKMQIGAPVRQNIDAGERPCLQGYYTAAELKPVLDRPPQDSNAPGASGKAFKTTNLSVEEQKEKERGEAKHCFNAFASDRISLHRDLGPDTRPPECIEQKFKRCPPLPTTSVIIVFHNEAWSTLLRTVHSVLYSSPAILLKEIILVDDASVDEYLHDKLDEYVKQFSIVKIVRQRERKGLITARLLGATVATAETLTFLDAHCECFYGWLEPLLARIAENYTAVVSPDIASIDLNTFEFNKPSPYGSNHNRGNFDWSLSFGWESLPDHEKQRRKDETYPIKTPTFAGGLFSISKEYFEYIGSYDEEMEIWGGENIEMSFRVWQCGGQLEIMPCSVVGHVFRSKSPHSFPKGTQVIARNQVRLAEVWMDEYKEIFYRRNTDAAKIVKQKAFGDLSKRFEIKHRLQCKNFTWYLNNIYPEVYVPDLNPVISGYIKSVGQPLCLDVGENNQGGKPLIMYTCHGLGGNQYFEYSAQHEIRHNIQKELCLHAAQGLVQLKACTYKGHKTVVTGEQIWEIQKDQLLYNPFLKMCLSANGEHPSLVSCNPSDPLQKWILSQND
Q: For B1, which GalNAc-transferase activity (PSGL-1b peptide) is on record?
A: exhibited poor activities with both peptide designs

Q: What about the GalNAc-transferase activity (PSGL-1a peptide) of the same protein?
A: exhibited poor activities with both peptide designs

B2: soluble recombinant human GalNAc-T1 (pAcGP67-GalNAc-T1-sol) (protein)
chain: GLPAGDVLEPVQKPHEGPGEMGKPVVIPKEDQEKMKEMFKINQFNLMASEMIALNRSLPDVRLEGCKTKVYPDNLPTTSVVIVFHNEAWSTLLRTVHSVINRSPRHMIEEIVLVDDASERDFLKRPLESYVKKLKVPVHVIRMEQRSGLIRARLKGAAVSKGQVITFLDAHCECTVGWLEPLLARIKHDRRTVVCPIIDVISDDTFEYMAGSDMTYGGFNWKLNFRWYPVPQREMDRRKGDRTLPVRTPTMAGGLFSIDRDYFQEIGTYDAGMDIWGGENLEISFRIWQCGGTLEIVTCSHVGHVFRKATPYTFPGGTGQIINKNNRRLAEVWMDEFKNFFYIISPGVTKVDYGDISSRVGLRHKLQCKPFSWYLENIYPDSQIPRHYFSLGEIRNVETNQCLDNMARKENEKVGIFNCHGMGGNQVFSYTANKEIRTDDLCLDVSKLNGPVTMLKCHHLKGNQLWEYDPVKLTLQHVNSNQCLDKATEEDSQVPSIRDCNGSRSQQWLLRNVTLPEIF
Q: Which results are given for B2?
A: GalNAc-transferase activity (PSGL-1b peptide): exhibited poor activities with both peptide designs; Km for acceptor substrate (PSGL-1b peptide): > 2000 µM; Km for acceptor substrate (Muc7 peptide): 40 µM; Vmax (Muc7 peptide): 0.76 nmol/min/µg; GalNAc-transferase activity (PSGL-1a peptide): exhibited poor activities with both peptide designs; Km for acceptor substrate (EA2 peptide): 70 µM; Vmax (EA2 peptide): 0.99 nmol/min/µg
